The values below come from patent US20060252692A1, “Inhibitors for use in hemostasis” (ZymoGenetics, Inc., priority 2002, published 2006).

The test system of test [1] is RAW 264.7 (ATCC No. CRL-2278). Briefly: Binding of zsig37 to RAW 264.7 monocyte/macrophage line. To be noted: mouse monocyte/macrophage line. An excerpt: This could potentially result in zsig37 involvement in monocyte phagocytosis, microbial killing, and cellular cytotoxicity. Following the two days in culture, there are macrophages present in the culture and zsig37 may be binding preferentially to this subset of cells. Zsig37 also bound to a mouse monocyte/macrophage line, RAW 264.7 (ATCC No. CRL-2278), indicating macrophage specificity.

Test [2] deals with carotid artery crush injury, vascular occlusion. The experiment in a line: Modified rabbit carotid artery crush injury model. The format is in vivo, New Zealand White rabbits. The conditions noted are these: 2-13.5 μg/kg. The method, then:
Zsig37 was administered in a modified rabbit carotid artery injury model (Folts et al., Circulation 79:116 (1989), and Golino et al., Thrombosis and Haemostasis 67:302 (1992)) to determine the degree of protection offered in preventing vascular occlusion following a crush injury.
Thirty-four male New Zealand White rabbits, approximately three to six months old (R&R Rabbitry; Stanwood, Wash.) were divided into two groups. Fifteen rabbits received doses of zsig37 ranging from 2-13.5 μg/kg and 19 control rabbits were injected with PBS or equivalent amounts of PBS or zsig39, another adipocyte complement related protein (WO99/10492). The rabbits were anesthetized with ketamine (50 mg/kg, IM) and maintained on halothane inhalation anesthesia for the duration of the study. The hair was shaved from the ears and neck and an angiocatheter was placed in the marginal ear vein for IV support. A midline incision was made in the neck and the carotid artery was accessed. Approximately 5 cm of the common carotid artery proximal to the internal/external bifurcation was exposed via blunt dissection away from the surrounding tissue and any visible side branches were cauterized. A flow probe (Transonic Systems, Inc.; Ithaca N.Y.) was placed distal to the anticipated injury site and a baseline blood flow was established. A 2.5-3.0 cm section of the vessel was then isolated from circulation using atraumatic vascular clamps. Following removal of the blood from the vessel segment, 0.4 ml of zsig37 in 0.9% sodium chloride or […] 0.9% sodium chloride as a control, was injected into the empty vessel segment using a 30 G needle. The vessel was left undisturbed for a five-minute pre-injury treatment. A 1.0 cm crush injury was then inflicted into the center of the vessel segment using a guarded hemostat and left undisturbed for 10 minutes. The vessel clamps were then removed and blood flow reestablished. Blood flow was monitored continuously for 60 minutes after which time the rabbits were euthanized and the vessel excised for histological analysis.

In test [3] the test system is alternate pathway of human Complement serum. Briefly: Complement hemolysis assay, alternate pathway (rabbit erythrocytes and EGTA). It counts as biochemical. The method, then:
Complement assays were performed in 96 well round bottom plates. Gelatin Veronal buffer containing magnesium and calcium (141 mM NaCl, 1.8 mM sodium barbitol, 3.1 mM barbituric acid, 0.1% bovine gelatin, 0.5 mM MgCl2 and 0.15 mM CaCl2) was used for all serum and inhibitor dilutions as well as erythrocyte suspensions. Fifty microliters of standardized human Complement serum (Sigma Chemical Co.), diluted 1/37.5 (for a final dilution of 1/150) was added to each well. The inhibitor was added in triplicate, 50 μl/well. The serum and inhibitor were incubated for thirty minutes at room temperature. The assay was initiated by the addition of 100 μl of 2×10^8/ml unsensitized sheep erythrocytes (Colorado Serum Co.; Denver, Colo.), sensitized sheep erythrocytes, sensitized using the Hemolysin manufacturer's protocol (BioWhittaker Inc.; Walkersville, Md.) and rabbit erythrocytes containing 16 mM EGTA, and 4 mM Mg^++. A human serum dilution series from 1/50 to 1/400 was also plated as an activity control. Erythrocytes, lysed with distilled water and diluted to 100, 75, 50, 25, and 12.5 percent lysis, were used to quantify complement percent lysis. The plate was sealed and incubated at 37° C. for one hour with mixing every 15 minutes. […] The plate was read at 415 nm and percent lysis was calculated.

For a further test, the system named is TF-1 cells. The experiment in a line: Adhesion and spreading of TF-1 cells on zsig37-coated plates. To be noted: addition of soluble zsig37. The format is cell-based. The method, then:
The ability of zsig37 to stimulate adhesion and spreading of TF-1 cells was assayed as follows. A series of dilutions were prepared from C-terminal Glu-Glu-tagged zsig37, from 10 to 0.0625 ’g/ml, in either PBS or ELISA coating buffer (0.1 M NaCO3) and each was plated into a 96 well plate (Costar; Pleasanton, Calif.) at 100 μl/well. The plates were incubated at 37° C., 5% CO2 for 2 hours. The plates were then washed 3× with RPMI/10% FBS (RPMI 1640, 2 mM L-glutamine, 110 μg/ml sodium pyruvate, PSN and 10% heat inactivated fetal bovine serum) and allowed to block for 15 minutes.
TF-1 cells (derived from acute myeloid leukemia cells) were resuspended in RPMI/10% FBS and plated into at 10,000 cells/well into the zsig37CEE-coated 96 well plates at a final volume of 120 μl/well. The plate was incubated at 37° C. under 5% CO2 for 2 hours. The plates were then washed 3× with PBS and 200 μl/well growth media (RPMI/10% FBS, 5 ng/ml GM-CSF) was added. The cells were microscopically inspected before and after the wash.
A dye incorporation assay was also used to measure the number of adherent cells based on a colorimetric change and an increase in fluorescent signal. ALAMAR BLUE (AccuMed; Chicago, Ill.) was added to the 96 well plates and the cells were incubated at 37° C. under 5% CO2 overnight. […]

B1: zsig37: adipocyte complement related protein homolog, polypeptide of SEQ ID NO:2, inhibits collagen-mediated platelet activation and the complement pathway (protein, listed as Homo sapiens)
chain: MGSRGQGLLLAYCLLLAFASGLVLSRVPHVQGEQQEWEGTEELPSPPDHAERAEEQHEKYRPSQDQGLPASRCLRCCDPGTSMYPATAVPQINITILKGEKGDRGDRGLQGKYGKTGSAGARGHTGPKGQKGSMGAPGERCKSHYAAFSVGRKKPMHSNHYYQTVIFDTEFVNLYDHFNMFTGKFYCYVPGLYFFSLNVHTWNQKETYLHIMKNEEEVVILFAQVGDRSIMQSQSLMLELREQDQVWVRLYKGERENAIFSEELDTYITFSGYLVKHATEP
As for B1, the “binding to RAW 264.7” value in test [1] is “bound”. Further, the “dose dependency of time patent” value in test [2] is on record as “No dose dependency was seen”. Besides, in test [2] (combined zsig37 treated groups, 60 minutes, standard error ±10.3%, controls 13.5%), the “mean percent time patent” value is recorded as 37.2%. In addition, in test [2] (unpaired t-test P=0.019), the “time patent compared to controls (meta analysis of all doses)” value is “significant increase in time patent”. In addition, the “inhibition of alternate pathway lysis” value in test [3] is on record as “no apparent inhibition”. Further, the “block of cell adhesion to bound zsig37 by soluble zsig37” value in the test on TF-1 cells is given as “did not block adhesion”.
